Measurements from publication PMC7060403 (Journal of molecular biology, 2019).

T1: RavP-N (N-terminal region of the rabies virus phosphoprotein, residues 1-152) (rabies virus, UniProt P22363 1-152)
T1 sequence: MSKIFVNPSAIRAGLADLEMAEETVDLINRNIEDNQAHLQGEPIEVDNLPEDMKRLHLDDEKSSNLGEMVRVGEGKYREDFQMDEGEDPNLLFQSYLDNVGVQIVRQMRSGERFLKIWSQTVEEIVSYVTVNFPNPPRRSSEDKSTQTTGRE

B1: full-length rabies virus phosphoprotein (RavP-FL, residues 1-297) (natural protein)
chain: MSKIFVNPSAIRAGLADLEMAEETVDLINRNIEDNQAHLQGEPIEVDNLPEDMKRLHLDDEKSSNLGEMVRVGEGKYREDFQMDEGEDPNLLFQSYLDNVGVQIVRQMRSGERFLKIWSQTVEEIVSYVTVNFPNPPRRSSEDKSTQTTGRELKKETTSAFSQRESQPSKARMVAQVAPGPPALEWSATNEEDDLSVEAEIAHQIAESFSKKYKFPSRSSGIFLYNFEQLKMNLDDIVKEAKNVPGVTRLAHDGSKIPLRCVLGWVALANSKKFQLLVEADKLSKIMQDDLNRYTSC

What was measured:
[1] = target: B1; assay: ITC
[2] = target: T1, RavP-N (N-terminal region of the rabies …); assay: ITC
SEC-MALS = target: the molecule itself; assay: SEC-MALS

| Binder | Kd [1] [nM] | stoichiometry N [1] | Kd [2] [nM] | stoichiometry N (SEC-MALS) |
| --- | --- | --- | --- | --- |
| LC8 from Drosophila melanogaster (natural protein, UniProt Q24117 1-89, looked up) MSDRKAVIKNADMSEEMQQDAVDCATQALEKYNIEKDIAAYIKKEFDKKYNPTWHCIVGRNFGSYVTHETRHFIYFYLGQVAILLFKSG | 82 | 1 | 30 |  |
| B1 |  |  |  | 2 |
